Reference: publication PMC6224603, “Membrane association and remodeling by intraflagellar transport protein IFT172” (Nature Communications, 2018)

Target: T1, Chlamydomonas IFT172 (intraflagellar transport protein 172), recombinant full-length, C-terminal His-tag (Chlamydomonas reinhardtii, UniProt Q5DM57 1-1755)
T1 construct: Gene synthesised or sub-cloned into MCS2 of the pFL vector; no removal of the His-tag is described; The detergent-free monomer was used in the liposome sedimentation assays; also called IFT172-His tag; IFT172 monomer; source: HighFive insect cells (baculovirus), purified (His60 Ni Resin, SEC on Superose 6; with 0.1% DDM for the monomer, or with HiTrapQ-Sepharose anion exchange for the …)
T1 sequence (Q5DM57 whole entry): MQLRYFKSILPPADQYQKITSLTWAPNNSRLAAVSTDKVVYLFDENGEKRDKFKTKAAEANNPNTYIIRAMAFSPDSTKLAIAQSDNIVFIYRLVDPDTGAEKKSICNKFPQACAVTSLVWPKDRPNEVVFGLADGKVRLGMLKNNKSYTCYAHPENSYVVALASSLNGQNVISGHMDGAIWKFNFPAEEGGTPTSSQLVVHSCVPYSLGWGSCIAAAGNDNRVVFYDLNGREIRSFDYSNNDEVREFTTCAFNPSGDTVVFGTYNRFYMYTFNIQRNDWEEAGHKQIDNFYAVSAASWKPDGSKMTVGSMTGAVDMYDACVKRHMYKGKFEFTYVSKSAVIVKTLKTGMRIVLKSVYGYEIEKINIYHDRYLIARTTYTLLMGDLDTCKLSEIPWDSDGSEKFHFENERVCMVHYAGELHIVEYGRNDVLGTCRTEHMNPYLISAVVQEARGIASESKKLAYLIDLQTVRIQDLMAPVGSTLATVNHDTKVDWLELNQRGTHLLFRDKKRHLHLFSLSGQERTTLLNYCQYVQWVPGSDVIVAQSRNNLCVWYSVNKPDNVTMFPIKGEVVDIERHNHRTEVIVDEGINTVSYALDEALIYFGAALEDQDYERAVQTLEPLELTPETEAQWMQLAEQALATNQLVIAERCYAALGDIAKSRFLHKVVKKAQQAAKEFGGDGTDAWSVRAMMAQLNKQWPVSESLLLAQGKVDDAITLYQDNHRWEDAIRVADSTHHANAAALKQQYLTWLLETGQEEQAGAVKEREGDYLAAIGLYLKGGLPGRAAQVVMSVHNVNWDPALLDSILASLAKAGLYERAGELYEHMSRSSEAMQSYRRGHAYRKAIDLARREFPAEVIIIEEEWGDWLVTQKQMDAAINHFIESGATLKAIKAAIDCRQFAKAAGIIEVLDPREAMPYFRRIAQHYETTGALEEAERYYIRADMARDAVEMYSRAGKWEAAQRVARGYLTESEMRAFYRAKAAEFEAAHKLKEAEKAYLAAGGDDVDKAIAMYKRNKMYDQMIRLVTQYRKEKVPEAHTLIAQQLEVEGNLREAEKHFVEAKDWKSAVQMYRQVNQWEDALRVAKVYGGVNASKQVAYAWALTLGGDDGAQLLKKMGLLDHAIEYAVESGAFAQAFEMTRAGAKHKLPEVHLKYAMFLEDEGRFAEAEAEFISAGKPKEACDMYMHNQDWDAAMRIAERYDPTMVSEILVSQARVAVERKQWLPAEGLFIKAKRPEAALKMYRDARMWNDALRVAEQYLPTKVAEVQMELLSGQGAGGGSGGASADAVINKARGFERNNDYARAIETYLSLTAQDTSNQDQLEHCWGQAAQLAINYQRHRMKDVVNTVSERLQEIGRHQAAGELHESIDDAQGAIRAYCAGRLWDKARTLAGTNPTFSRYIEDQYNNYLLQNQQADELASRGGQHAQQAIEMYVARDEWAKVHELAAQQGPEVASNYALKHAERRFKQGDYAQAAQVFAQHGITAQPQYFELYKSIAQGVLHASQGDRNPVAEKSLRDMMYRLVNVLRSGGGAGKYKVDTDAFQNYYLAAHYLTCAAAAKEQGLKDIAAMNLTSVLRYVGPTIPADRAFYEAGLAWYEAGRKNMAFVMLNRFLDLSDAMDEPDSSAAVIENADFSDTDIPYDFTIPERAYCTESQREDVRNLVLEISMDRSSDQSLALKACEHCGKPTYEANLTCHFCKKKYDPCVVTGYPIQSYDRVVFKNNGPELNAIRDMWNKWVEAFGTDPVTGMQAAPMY
Experiment: co-sedimentation; liposome co-sedimentation: IFT172 with Folch fraction I MLV and rising amounts of IFT57; 20 mM Hepes, 150 mM NaCl, pH 7.5, 15 min on ice, 135,000 xg for 20 min, supernatant and pellet by SDS-PAGE; binding of IFT57 to IFT172 is read from the loss of IFT172 from the liposome pellet
Details: both partners purified

binding result: binds
B1: Chlamydomonas IFT57 (intraflagellar transport protein 57), full-length (natural protein, UniProt Q2XQY7 1-469, looked up)
chain: MSSKRGGRSSLAKAPEEAVNGEAFAPEASPPPPGDDGDAGGEDGGAPAPPPPPATKGGPVAVGRSLEIQTTPDVCMEMLADKLKLLNYEADFCRKKKPYRKPLSRLYFAVPLANSSEQFFYFTSLATWLLGLAGVELPAPKEFDDPNLTCQNILGAVKKLGFAPPSYHPTKLTVGNGKEVVGVLDGLVDFVLERRHHKYSRPAYGNDGQPEEGVQLDDEAEAAAMEGADELAMPAQNQADDDEEEEGVYVDPGRGDAAGPGTGASAAMDAEKAVLVSKVDPTLWKIELERVAPKLRITIAADSKDWRSHLDEAHQHKEVISKAWPDSKTSLERLRADLNGTLEKLQTREKFLNEQFESLMQQYRAARTTFTDVQETYNRKTEAVADRNQEMHRIGETLEEVKAMMDEKGSNIADATPVARIKTAIKQLNKELHDMEVRIGVVSHTLLQLSLRNKRLLQAQAALSDEEED
notes: IFT57 from Chlamydomonas, full length, cloned into the pEC vector; source: E. coli BL21 (DE3), purified (Ni-NTA, TEV cleavage, HiTrapQ-Sepharose, SEC); not shown: His tag, N-terminal, cleaved
